Test [1] deals with T1, Mature human IL-6 (human, UniProt P05231 30-212). The test can be described thus: cell-based or functional assay.
Target sequence in this assay (P05231 30-212): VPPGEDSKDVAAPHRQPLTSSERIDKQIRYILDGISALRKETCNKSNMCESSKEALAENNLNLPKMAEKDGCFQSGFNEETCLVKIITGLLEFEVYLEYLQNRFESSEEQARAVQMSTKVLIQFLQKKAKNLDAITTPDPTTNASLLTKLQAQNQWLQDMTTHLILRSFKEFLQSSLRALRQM
In test [2] the target is T1, Mature human IL-6. The test can be described thus: cell-based or functional assay. This is another data set of the same source.
Target sequence in this assay (P05231 30-212): as above
Test [3] addresses T2, HIS FLAG tagged human IL-6 (human, UniProt P05231 30-212).
T2 construct: In house; also called HIS FLAG IL-6; HIS/FLAG IL-6
The test can be described thus: HTRF antibody-ligand competition; competitor biotinylated CAN022D10 IgG; protocol modified for IgG (footnote). On the procedure:
(§1) Crude scFv preparations from a representative number of individual clones for the round 3 and round 4 outputs were screened for their inhibitory activity in a CAN022D10 IgG-IL-6 HTRF® binding assay. In this assay, binding of biotinyated antibody and FLAG-tagged IL-6 was detected using cryptate labelled anti-FLAG monoclonal antibody and streptavidin XL^{ent!}™. The detailed assay method is provided in the Materials and Methods section.
(§2) The IC₅₀ value for each scFv was then calculated from data obtained by a testing dilution series of the purified sample in the HTRF antibody-ligand biochemical assay and TF-1 proliferation assay.
(Time-resolved FRET reads energy transfer from a long-lived donor to a nearby acceptor.)

Test [4] addresses T1, Mature human IL-6. The test can be described thus: cell-based or functional assay. The source holds these as a separate data set.
Target sequence in this assay (P05231 30-212): as above
The target of test [5] is T2, HIS FLAG tagged human IL-6. Put plainly: HTRF antibody-ligand competition; competitor biotinylated CAN022D10 IgG. On the procedure: as §1, §2
The target of test [6] is T1, Mature human IL-6. The test can be described thus: cell-based or functional assay. The source holds these as a separate data set.
Target sequence in this assay (P05231 30-212): as above
Test [7] addresses T1, Mature human IL-6. The test can be described thus: cell-based or functional assay. This is another data set of the same source.

T2 sequence (P05231 other isoform, or with tags, fused parts or gaps): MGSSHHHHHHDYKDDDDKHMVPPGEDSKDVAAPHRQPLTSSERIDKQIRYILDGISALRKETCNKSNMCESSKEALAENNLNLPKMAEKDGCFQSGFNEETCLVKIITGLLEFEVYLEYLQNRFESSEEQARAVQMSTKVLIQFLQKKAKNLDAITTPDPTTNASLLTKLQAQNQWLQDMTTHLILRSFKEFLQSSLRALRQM

B1: Antibody 2 IgG (antibody, V domains shown)
VH: EVQLVQSGGGLIQPGGSLRLSCAASGFTISSNYMTWVRQAPGKGLEWVSDLYYYAGDTYYADSVRGRFTMSRDISKNTVYLQMDSLRAEDTGVYYCARWADGHYYYIDVWGGGTLVTVSS
VL: DIVMTQSPSTLSASVGDRVTITCRASQGISSWLTWYQQKPGRAPKVLIYKASTLESGVPSRFSGSGSGTDFTLTISSLQPEDFATYYCQQSYSAPWTFGQGTKLELKR
notes: Non-germlined; also called Ab 2
Regarding B1, in test [1], the “IC50, TF-1 Proliferation Assay” value came to 0.016 nM. Also, the “IC50, endogenous IL-6 induced synovial fibroblast VEGF release assay” value in test [2] worked out at 0.59 nM. In addition, the IC50 in test [3] was found to be 0.036 nM.

B2: Antibody 16 IgG (antibody, V domains shown)
VH: EVQLVQSGGGLIQPGGSLRLSCAASGFTISSNYMIWVRQAPGKGLEWVSDLYYYAGDTYYADSVKGRFTMSRDISKNTVYLQMNSLRAEDTGVYYCARWADDHPPYIDLWGRGTLVTVSS
VL: DIVMTQSPSTLSASVGDRVTITCRASQGISSWLAWYQQKPGRAPKVLIYKASTLESGVPSRFSGSGSGTDFTLTISSLQPEDFATYYCQQSWLGGSFGQGTKLEIKR
Consider B2, for which, in test [4], the “IC50, TF-1 cell proliferation assay” value is 0.0049 nM.

B3: Antibody 14 IgG (antibody, V domains shown)
VH: EVQLVQSGGGLIQPGGSLRLSCAASGFTISSNYMIWVRQAPGKGLEWVSDLYYYAGDTYYADSVKGRFTMSRDISKNTVYLQMNSLRAEDTGVYYCARWADDHNYPHIDVWGRGTLVTVSS
VL: DIVMTQSPSTLSASVGDRVTITCRASQGISSWLAWYQQKPGRAPKVLIYKASTLESGVPSRFSGSGSGTDFTLTISSLQPEDFATYYCAAHYAAPWTFGQGTKLEIKR
In the case of B3, the “IC50, TF-1 cell proliferation assay” value in test [4] worked out at 0.031 nM.

B4: Antibody 8 IgG (antibody, V domains shown)
VH: EVQLVQSGGGLIQPGGSLRLSCAASGFTISSNYMIWVRQAPGKGLEWVSDLYYYAGDTYYADSVKGRFTMSRDISKNTVYLQMNSLRAEDTGVYYCARWADDHPRYIDHWGRGTLVTVSS
VL: DIVMTQSPSTLSASVGDRVTITCRASQGISSWLAWYQQKPGRAPKVLIYKASTLESGVPSRFSGSGSGTDFTLTISSLQPEDFATYYCQQSWLGGSFGQGTKLEIKR
In the case of B4, the “IC50, TF-1 cell proliferation assay” value in test [4] stood at 0.048 nM.

B5: Antibody 23 IgG (antibody, V domains shown)
VH: EVQLVQSGGGLIQPGGSLRLSCAASGFTISSNYMIWVRQAPGKGLEWVSDLYYYAGDTYYADSVKGRFTMSRDISKNTVYLQMNSLRAEDTGVYYCARWADDHAPWVDLWGRGTLVTVSS
VL: DIVMTQSPSTLSASVGDRVTITCRASQGISSWLAWYQQKPGRAPKVLIYKASTLESGVPSRFSGSGSGTDFTLTISSLQPEDFATYYCQQSWLGGSFGQGTKLEIKR
Regarding B5, the “IC50, TF-1 cell proliferation assay” value in test [4] stood at 0.02 nM.

B6: Antibody 19 IgG (antibody, V domains shown)
VH: EVQLVQSGGGLIQPGGSLRLSCAASGFTISSNYMIWVRQAPGKGLEWVSDLYYYAGDTYYADSVKGRFTMSRDISKNTVYLQMNSLRAEDTGVYYCARWADDHPSHLDIWGRGTLVTVSS
VL: DIVMTQSPSTLSASVGDRVTITCRASQGISSWLAWYQQKPGRAPKVLIYKASTLESGVPSRFSGSGSGTDFTLTISSLQPEDFATYYCQQSWLGGSFGQGTKLEIKR
As for B6, in test [4], the “IC50, TF-1 cell proliferation assay” value was 0.068 nM.

B7: Antibody 2 scFv (scFv, V domains shown)
VH: EVQLVQSGGGLIQPGGSLRLSCAASGFTISSNYMTWVRQAPGKGLEWVSDLYYYAGDTYYADSVRGRFTMSRDISKNTVYLQMDSLRAEDTGVYYCARWADGHYYYIDVWGGGTLVTVSS
VL: DIVMTQSPSTLSASVGDRVTITCRASQGISSWLTWYQQKPGRAPKVLIYKASTLESGVPSRFSGSGSGTDFTLTISSLQPEDFATYYCQQSYSAPWTFGQGTKLELKR
notes: Non-germlined; also called Ab 2; not shown: scFv linker, domain order and any purification tags
For B7, in test [1], the “IC50, TF-1 Proliferation Assay” value was 9.6 nM. In test [5], the IC50 amounted to 0.035 nM.

B8: Antibody 5 scFv (scFv, V domains shown)
VH: EVQLVQSGGGLIQPGGSLRLSCAASGFTISSNYMIWVRQAPGKGLEWVSDLYYYAGDTYYADSVKGRFTMSRDISKNTVYLQMNSLRAEDTGVYYCARWADGHYYYADVWGRGTLVSVSS
VL: DIVMTQSPPTLSASVGDRVTITCRASQGISSWLAWYQQKPGRAPKVLIYKASTLESGVPSRFSGSGSGTDFTLTISSLQPEDFASYYCQQSYSAPWTFGQGTKLEIKR
notes: Non-germlined; also called Ab 5; not shown: scFv linker, domain order and any purification tags
Consider B8, for which, in test [1], the “IC50, TF-1 Proliferation Assay” value is 12.4 nM. For the same molecule, in test [5], the IC50 was 0.065 nM.

B9: Antibody 3 IgG (antibody, V domains shown)
VH: QVQLVQSGGGLIQPGGSLRLSCAASGFTISSNYMVWVRQAPGKGLEWVSDLYYYAGDTYYADSVKGRFTVSRDISKNTVYLQMNSLRAEDTGVYYCARWADDHYYHIDVWGRGTLVTVSS
VL: DIVMTQSPSTLSASVGDRVTITCRASQGISSWLAWYQQKPGRAPKALIYKASTLESGVPSRFSGSGSGTDFTLTISSLQPEDFATYYCQQSYSTPWTFGQGTKLEIKR
notes: Non-germlined; IgG1 with human heavy chain and kappa constant domains; also called Ab 3
Regarding B9, the “IC50, TF-1 Proliferation Assay” value in test [1] amounted to 0.05 nM. Also, in test [2], the “IC50, endogenous IL-6 induced synovial fibroblast VEGF release assay” value came to 0.38 nM. Besides, the IC50 in test [3] came to 0.043 nM.

B10: Antibody 4 IgG (antibody, V domains shown)
VH: EVQLVQSGGGLIQPGGSLRLSCAASGFTVSSNYMTWVRQAPGKGLEWVSDLYYYAGDTYYADSVKGRFTMSRDISKNTVYLQMNSLRAEDTGVYYCARWADGHYYYADVWGRGTLVSVSS
VL: DIVMTQSPSTLSASVGDRVTITCRASQGISSWLAWYQQKPGRAPKVLIYKASTLESGVPSRFSGSGSGTDFTLTISSLQPEDFASYYCQQSYSAPWTFGQGTKLELKR
notes: Non-germlined; IgG1 with human heavy chain and kappa constant domains; also called Ab 4
For the molecule B10, in test [1], the “IC50, TF-1 Proliferation Assay” value turned out to be 0.061 nM. The “IC50, endogenous IL-6 induced synovial fibroblast VEGF release assay” value in test [2] is 0.52 nM. Moreover, in test [3], the IC50 amounted to 0.043 nM.

B11: Antibody 5 IgG (antibody, V domains shown)
VH: EVQLVQSGGGLIQPGGSLRLSCAASGFTISSNYMIWVRQAPGKGLEWVSDLYYYAGDTYYADSVKGRFTMSRDISKNTVYLQMNSLRAEDTGVYYCARWADGHYYYADVWGRGTLVSVSS
VL: DIVMTQSPPTLSASVGDRVTITCRASQGISSWLAWYQQKPGRAPKVLIYKASTLESGVPSRFSGSGSGTDFTLTISSLQPEDFASYYCQQSYSAPWTFGQGTKLEIKR
notes: Non-germlined; IgG1 with human heavy chain and kappa constant domains; also called Ab 5
With B11, the “IC50, TF-1 Proliferation Assay” value in test [1] is 0.042 nM. In test [2], the “IC50, endogenous IL-6 induced synovial fibroblast VEGF release assay” value worked out at 0.7 nM. For the same molecule, in test [3], the IC50 turned out to be 0.026 nM.

B12: Antibody 3 scFv (scFv, V domains shown)
VH: QVQLVQSGGGLIQPGGSLRLSCAASGFTISSNYMVWVRQAPGKGLEWVSDLYYYAGDTYYADSVKGRFTVSRDISKNTVYLQMNSLRAEDTGVYYCARWADDHYYHIDVWGRGTLVTVSS
VL: DIVMTQSPSTLSASVGDRVTITCRASQGISSWLAWYQQKPGRAPKALIYKASTLESGVPSRFSGSGSGTDFTLTISSLQPEDFATYYCQQSYSTPWTFGQGTKLEIKR
notes: Non-germlined; also called Ab 3; not shown: scFv linker, domain order and any purification tags
As for B12, in test [1], the “IC50, TF-1 Proliferation Assay” value came to 7.3 nM. In addition, the IC50 in test [5] is 0.022 nM.

B13: Antibody 4 scFv (scFv, V domains shown)
VH: EVQLVQSGGGLIQPGGSLRLSCAASGFTVSSNYMTWVRQAPGKGLEWVSDLYYYAGDTYYADSVKGRFTMSRDISKNTVYLQMNSLRAEDTGVYYCARWADGHYYYADVWGRGTLVSVSS
VL: DIVMTQSPSTLSASVGDRVTITCRASQGISSWLAWYQQKPGRAPKVLIYKASTLESGVPSRFSGSGSGTDFTLTISSLQPEDFASYYCQQSYSAPWTFGQGTKLELKR
notes: Non-germlined; also called Ab 4; not shown: scFv linker, domain order and any purification tags
For the molecule B13, in test [1], the “IC50, TF-1 Proliferation Assay” value is 13.4 nM. This molecule returned an IC50 in test [5] of 0.024 nM.

B14: Antibody 10 (GL) IgG (antibody, V domains shown)
VH: EVQLVESGGGLVQPGGSLRLSCAASGFTISSNYMIWVRQAPGKGLEWVSDLYYYAGDTYYADSVKGRFTMSRDISKNTVYLQMNSLRAEDTAVYYCARWEEEGRGYIDVWGRGTLVTVSS
VL: DIQMTQSPSTLSASVGDRVTITCRASQGISSWLAWYQQKPGKAPKVLIYKASTLESGVPSRFSGSGSGTEFTLTISSLQPDDFATYYCQQSWLGGSFGQGTKLEIKR
On to B14, for which the “IC50, IL-6 induced TF-1 cell proliferation assay” value in test [6] amounted to 0.071 nM. In addition, in test [2], the “IC50, endogenous IL-6 induced synovial fibroblast VEGF release assay” value was 0.55 nM.

B15: Antibody 17 (GL) IgG (antibody, V domains shown)
VH: EVQLVESGGGLVQPGGSLRLSCAASGFTISSNYMIWVRQAPGKGLEWVSDLYYYAGDTYYADSVKGRFTMSRDISKNTVYLQMNSLRAEDTAVYYCARWADDHPPYIDMWGRGTLVTVSS
VL: DIQMTQSPSTLSASVGDRVTITCRASQGISSWLAWYQQKPGKAPKVLIYKASTLESGVPSRFSGSGSGTEFTLTISSLQPDDFATYYCQQSWLGGSFGQGTKLEIKR
Consider B15, for which the “IC50, IL-6 induced TF-1 cell proliferation assay” value in test [6] was 0.001 nM. For the same molecule, the “IC50, endogenous IL-6 induced synovial fibroblast VEGF release assay” value in test [2] was 0.57 nM. Moreover, the “Mean IC50, inhibition of IL-6 induced IgM secretion from SKW6.4 cells, n=3” value in test [7] is 0.00321 nM.

For orientation: IC50 means the point on the concentration scale where inhibition reaches its midpoint.

(Values after patent US20150197568A1 (AstraZeneca / MedImmune, published 2015).)
